The text below walks through data of the RNAGym collection of RNA variant scans (doi:10.7554/elife.90254).

First the molecules themselves.
B1: LINE1-mini (parent)
chain: GGCAGAGCUCAACACAGCGUGGCAAAGUGGCUGUGGCUAGACUGCC

In the data set the parent is B1. The experiment in a line: self-cleavage, relative activity (ratio to wild type); higher = more cleavage; in vitro, sequencing; the parent is a self-cleaving ribozyme.
As for GGGAGAGCUCAACUCAGCGUGGCAAAGUGGCUGUGGCUAGACUGCC [C3G A14U], the self-cleavage is 0.32.

For GGGAGAGCUCAACCCAGCGUGGCAAAGUGGCUGUGGCUAGACUGCC [C3G A14C], the self-cleavage is 0.06. To GGGAGAGCUCAACGCAGCGUGGCAAAGUGGCUGUGGCUAGACUGCC [C3G A14G] belongs 1.31; to GGGAGAGCUCAACACAGUGUGGCAAAGUGGCUGUGGCUAGACUGCC [C3G C18U], 0.54. To GGGAGAGCUCAACACAGAGUGGCAAAGUGGCUGUGGCUAGACUGCC [C3G C18A] belongs 0.17; to GGGAGAGCUCAACACAGGGUGGCAAAGUGGCUGUGGCUAGACUGCC [C3G C18G], 0.15. For GGGAGAGCUCAACACAGCGUGGCAAAGUGGCUGUGGCUAGACUGCU [C3G C46U] the value was 0.17; for GGGAGAGCUCAACACAGCGUGGCAAAGUGGCUGUGGCUAGACUGCG [C3G C46G], 0.35. With GGGAGAGCUCAACACAGCGUGGCAAAGUGGCUGUGGCUAGACUGCA [C3G C46A], the self-cleavage is 0.36. For GGAAGAGCUCAACACAGCGUGGCAAAGUGGCUGAGGCUAGACUGCC [C3A U34A] the value was 0.11.

As for GGAAGAGCUCAACACAGCGUGGCAAAGUGGCUGGGGCUAGACUGCC [C3A U34G], the self-cleavage was 0.12. For GGAAGAGCUCAACACAGCGUGGCAAAGUGGCUGCGGCUAGACUGCC [C3A U34C] the value was 0.14. GGAAGAGCUCAACACAGCGUGGCAAAGUGGCUGUUGCUAGACUGCC [C3A G35U]: the self-cleavage was 0.59. On to GGAAGAGCUCAACACAGCGUGGCAAAGUGGCUGUAGCUAGACUGCC [C3A G35A], for which the self-cleavage amounted to 0.35. To GGAAGAGCUCAACACAGCGUGGCAAAGUGGCUGUCGCUAGACUGCC [C3A G35C] belongs 0.18. For GGGAGAGCUCAUCACAGCGUGGCAAAGUGGCUGUGGCUAGACUGCC [C3G A12U] the value was 0.43; for GGGAGAGCUCACCACAGCGUGGCAAAGUGGCUGUGGCUAGACUGCC [C3G A12C], 0.19; for GGGAGAGCUCAGCACAGCGUGGCAAAGUGGCUGUGGCUAGACUGCC [C3G A12G], 0.09. For GGAAGAGCUCAACACAGCGCGGCAAAGUGGCUGUGGCUAGACUGCC [C3A U20C] the value was 0.19; for GGAAGAGCUCAACACAGCGAGGCAAAGUGGCUGUGGCUAGACUGCC [C3A U20A], 0.38.

For the variant GGAAGAGCUCAACACAGCGGGGCAAAGUGGCUGUGGCUAGACUGCC [C3A U20G], the self-cleavage is 0.31. For GGGAGAGCUCAACACAGCGUGGCAAAGUGGCUGUGGCUAGACUGCC [C3G] the value was 0.48. For GGGAGAGCUCAACACAGCGUGGCAAAGUGGCUGUGGCUAGUCUGCC [C3G A41U] the value was 0.29; for GGGAGAGCUCAACACAGCGUGGCAAAGUGGCUGUGGCUAGCCUGCC [C3G A41C], 0.1. For GGGAGAGCUCAACACAGCGUGGCAAAGUGGCUGUGGCUAGGCUGCC [C3G A41G] the value was 0.09. As for GGGAGAGCUCCACACAGCGUGGCAAAGUGGCUGUGGCUAGACUGCC [C3G A11C], the self-cleavage came to 0.04. For the variant GGGAGAGCUCGACACAGCGUGGCAAAGUGGCUGUGGCUAGACUGCC [C3G A11G], the self-cleavage came to 0.09. For GGGAGAGCUCUACACAGCGUGGCAAAGUGGCUGUGGCUAGACUGCC [C3G A11U] the value was 0.03.

On to GGAAGAGCUCAACACAGCGUGGCAAAGUGGCUGUGGCUAGACCGCC [C3A U43C], for which the self-cleavage came out at 0.28. For GGAAGAGCUCAACACAGCGUGGCAAAGUGGCUGUGGCUAGACAGCC [C3A U43A] the value was 0.39; for GGAAGAGCUCAACACAGCGUGGCAAAGUGGCUGUGGCUAGACGGCC [C3A U43G], 0.04.

In the case of GGGAGAGCUCAACACAGCGUGGCAAAGUGGAUGUGGCUAGACUGCC [C3G C31A], the self-cleavage came out at 0.15. For GGGAGAGCUCAACACAGCGUGGCAAAGUGGGUGUGGCUAGACUGCC [C3G C31G] the value was 0.07; for GGGAGAGCUCAACACAGCGUGGCAAAGUGGUUGUGGCUAGACUGCC [C3G C31U], 0.07.

As to GGAAGAGCUCAACACAGCGUGGCAAAGUGUCUGUGGCUAGACUGCC [C3A G30U], the self-cleavage came out at 0.61. To GGAAGAGCUCAACACAGCGUGGCAAAGUGACUGUGGCUAGACUGCC [C3A G30A] belongs 1.1. Consider GGAAGAGCUCAACACAGCGUGGCAAAGUGCCUGUGGCUAGACUGCC [C3A G30C], for which the self-cleavage was determined as 0.58. To GGGACAGCUCAACACAGCGUGGCAAAGUGGCUGUGGCUAGACUGCC [C3G G5C] belongs 0.58.

With GGGAAAGCUCAACACAGCGUGGCAAAGUGGCUGUGGCUAGACUGCC [C3G G5A], the self-cleavage stood at 0.68. To GGGAUAGCUCAACACAGCGUGGCAAAGUGGCUGUGGCUAGACUGCC [C3G G5U] belongs 0.11. For GGGAGAGCUCAACACAGCGUGGCAAAGUGGCUGUGGCUAGACUGGC [C3G C45G] the value was 1.97; for GGGAGAGCUCAACACAGCGUGGCAAAGUGGCUGUGGCUAGACUGAC [C3G C45A], 0.45. To GGGAGAGCUCAACACAGCGUGGCAAAGUGGCUGUGGCUAGACUGUC [C3G C45U] belongs 0.33; to GGGAGAGCUCAAAACAGCGUGGCAAAGUGGCUGUGGCUAGACUGCC [C3G C13A], 0.48; to GGGAGAGCUCAAGACAGCGUGGCAAAGUGGCUGUGGCUAGACUGCC [C3G C13G], 0.55. For the variant GGGAGAGCUCAAUACAGCGUGGCAAAGUGGCUGUGGCUAGACUGCC [C3G C13U], the self-cleavage was determined as 0.37. For GGAAGAGCGCAACACAGCGUGGCAAAGUGGCUGUGGCUAGACUGCC [C3A U9G] the value was 0.57. For GGAAGAGCCCAACACAGCGUGGCAAAGUGGCUGUGGCUAGACUGCC [C3A U9C] the value was 0.05; for GGAAGAGCACAACACAGCGUGGCAAAGUGGCUGUGGCUAGACUGCC [C3A U9A], 0.59. For GGGAGAGCUCAACACAGCGUGGCAACGUGGCUGUGGCUAGACUGCC [C3G A26C] the value was 0.37; for GGGAGAGCUCAACACAGCGUGGCAAUGUGGCUGUGGCUAGACUGCC [C3G A26U], 0.56. For GGGAGAGCUCAACACAGCGUGGCAAGGUGGCUGUGGCUAGACUGCC [C3G A26G], the self-cleavage turned out to be 0.36.

Regarding GGGAGAGCUCAACACAGCGUGGCAAAGUGGCUGUGGCUAGAUUGCC [C3G C42U], the self-cleavage is 0.31. For GGGAGAGCUCAACACAGCGUGGCAAAGUGGCUGUGGCUAGAAUGCC [C3G C42A] the value was 0.28. For GGGAGAGCUCAACACAGCGUGGCAAAGUGGCUGUGGCUAGAGUGCC [C3G C42G], the self-cleavage was found to be 0.05. To GGGAGAGCUCAACAAAGCGUGGCAAAGUGGCUGUGGCUAGACUGCC [C3G C15A] belongs 0.18.
